# Numbered stars: 1 amine (or outer) side, 2 acyl side, 3 side chain; on linkers, the order of the positions; unused ones are H or OH. Bridge positions count the residues as written; N and C are the ends. Square brackets hold non-standard residues; d marks the D form. Primed or numbered codes have the meaning given here. * marks the point of attachment. RbOHPhe4CONH2 = (2S,3R)-2-amino-3-(4-carbamoylphenyl)-3-hydroxypropanoic acid, NC(=O)c1ccc([C@@H](O[*:3])[C@H](N[*:1])C(=O)[*:2])cc1; bhcLeu = (1R,3S)-3-aminocyclopentane-1-carboxylic acid, O=C([C@@H]1CC[C@H](N[*:1])C1)[*:2]; Trp(βS-Me,7-OMe) = COc1cccc2c([C@H](C)[C@H](N)C(=O)O)c[nH]c12; Phe(2-F,4-COOH) = N[C@@H](Cc1ccc(C(=O)O)cc1F)C(=O)O; dPro(trans-4-NMe2) = CN(C)[C@@H]1CN[C@@H](C(=O)O)C1; Trp(7-CN) = N#Cc1cccc2c(C[C@H](N)C(=O)O)c[nH]c12; Trp(7-Cl) = N[C@@H](Cc1c[nH]c2c(Cl)cccc12)C(=O)O; Biotin = O=C1N[C@H]2[C@H](CS[C@H]2CCCCC(=O)*)N1; Phe(4-CONH2) = NC(=O)c1ccc(C[C@H](N)C(=O)O)cc1; Phe(4-COOH) = N[C@@H](Cc1ccc(C(=O)O)cc1)C(=O)O; Trp(7-aza) = N[C@@H](Cc1c[nH]c2ncccc12)C(=O)O; Pip(4-aza) = O=C(O)[C@@H]1CNCCN1; 4Pal = N[C@@H](Cc1ccncc1)C(=O)O; NMeE = CN[C@@H](CCC(=O)O)C(=O)O; dHyp = O=C(O)[C@H]1C[C@H](O)CN1; d(αMeP) = C[C@]1(C(=O)O)CCCN1; 40Me3Pal = not defined here; Pipt5OH = not defined here; αMeS = C[C@](N)(CO)C(=O)O; Nle = CCCC[C@H](N)C(=O)O; Pip2c = not defined here; cAcBu = not defined here; Ahp′ = not defined here; MO2 = not defined here; Qdm = not defined here; AEA = NCCOCC(=O)O; Sar = CNCC(=O)O
# T1: TNFR1 on THP-1 Lucia NF-kB reporter cells (UniProt P19438 30-455, limits assumed)
# T1 sequence (looked up): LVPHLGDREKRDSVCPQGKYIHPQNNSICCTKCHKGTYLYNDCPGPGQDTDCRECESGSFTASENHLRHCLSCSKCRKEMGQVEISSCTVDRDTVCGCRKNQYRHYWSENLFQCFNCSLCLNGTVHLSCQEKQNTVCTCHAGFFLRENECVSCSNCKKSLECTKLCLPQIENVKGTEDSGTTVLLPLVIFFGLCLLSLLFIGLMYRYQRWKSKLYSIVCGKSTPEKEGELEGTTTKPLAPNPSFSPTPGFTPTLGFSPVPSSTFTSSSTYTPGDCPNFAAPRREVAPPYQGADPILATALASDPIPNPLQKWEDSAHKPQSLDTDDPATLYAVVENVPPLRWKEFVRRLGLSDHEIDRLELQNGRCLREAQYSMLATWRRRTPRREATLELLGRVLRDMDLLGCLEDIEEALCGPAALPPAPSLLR
# T2: TNFR1 on THP-1 Lucia NF-κB reporter cells (UniProt P19438 30-455, limits assumed)
# T2 sequence (looked up): T1 sequence (looked up)
# T3: C-terminally 6His-tagged human soluble TNFR1 (sTNFR1, residues 1-211), purified from a Sf21 baculovirus … (human)
# T3 construct: ID NO; The text says 'residues 1-211'; also called sTNFR1-6His; ID NO; P1
# T3 chain: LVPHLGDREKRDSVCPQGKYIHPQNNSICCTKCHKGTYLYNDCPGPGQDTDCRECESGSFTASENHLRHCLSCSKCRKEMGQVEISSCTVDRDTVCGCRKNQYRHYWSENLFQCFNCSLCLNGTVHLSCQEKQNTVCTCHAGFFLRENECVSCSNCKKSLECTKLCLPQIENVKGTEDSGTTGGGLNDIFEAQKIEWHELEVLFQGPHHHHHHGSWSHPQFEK
# B1: SEQ ID NO. 69 (peptide)
# peptide: cyclo([cAcBu][Nle][4Pal][Pip2c]W[NMeE]N[4Pal][Trp(7-Cl)][αMeS][Phe(4-COOH)]Y[Sar][Trp(βS-Me,7-OMe)])
# modifications: reading uncertain; also: printed as cyclo(cAcBu-Nle-4Pal-Pip2c-W-NMeE-N-4Pal-Trp7Cl-aMeS-Phe4COOH-Y-Sar-SbMeW7OMe)
# B2: SEQ ID NO. 65 (peptide)
# peptide: {CH2CO}-[Nle][PyrimAla][Pip2c][Trp(7-aza)][NMeE]N[4Pal][Trp(7-Cl)][αMeS][Phe(4-COOH)]Y[Sar][Trp(βS-Me,7-OMe)]C-NH2
# modifications: thioether N-14; reading uncertain; also: printed as cyclo(ClAc-Nle-PyrimAla-Pip2c-Trp7az-NMeE-N-4Pal-Trp7Cl-aMeS-Phe4COOH-Y-Sar-SbMeW7OMe-C)-NH2
# B3: SEQ ID NO. 78 (peptide)
# peptide: cyclo([bhcLeu][Nle][4Pal][Pipt5OH]W[dHyp][RbOHAsn][4Pal][Trp(7-CN)][αMeS][Phe(4-CONH2)][Phe(4-COOH)][Sar][Trp(βS-Me,7-OMe)])
# modifications: reading uncertain; also: printed as cyclo(bhcLeu-Nle-4Pal-Pipt5OH-W-dProt4OH-RbOHAsn-4Pal-Trp7CN-aMeS-Phe4CONH2-Phe4COOH-Sar-SbMeW7OMe)
# B4: SEQ ID NO. 98 (peptide)
# peptide: cyclo([bhcLeu][Ahp′][SbMe4Pal]HW[dHyp]N[Phe(4-COOH)][Trp(7-CN)][αMeS][Phe(4-CONH2)][Phe(4-CONH2)][Sar][Trp(βS-Me,7-OMe)])
# modifications: reading uncertain; also: printed as cyclo(bhcLeu-Ahp-SbMe4Pal-H-W-dProt4OH-N-Phe4COOH-Trp7CN-aMeS-Phe4CONH2-Phe4CONH2-Sar-SbMeW7OMe)
# B5: SEQ ID NO. 7 (peptide)
# peptide: cyclo([bhcLeu][Nle][4Pal][Pip2c]W[NMeE]N[4Pal][Trp(7-Cl)][αMeS][Phe(2-F,4-COOH)]Y[Sar][Trp(βS-Me,7-OMe)])
# modifications: reading uncertain; also: printed as cyclo(bhcLeu-Nle-4Pal-Pip2c-W-NMeE-N-4Pal-Trp7Cl-aMeS-Phe2F4COOH-Y-Sar-SbMeW7OMe)
# B6: SEQ ID NO. 100 (peptide)
# peptide: cyclo([bhcLeu][Nle][4Pal][Pip2c]W[NMeE]N[40Me3Pal][Trp(7-Cl)][αMeS][Phe(4-COOH)]Y[Sar][Trp(βS-Me,7-OMe)])
# modifications: reading uncertain; also: printed as cyclo(bhcLeu-Nle-4Pal-Pip2c-W-NMeE-N-40Me3Pal-Trp7Cl-aMeS-Phe4COOH-Y-Sar-SbMeW7OMe)
# B7: SEQ ID NO. 76 (peptide)
# peptide: {CH2CO}-[Nle][4Pal][Pip2c]W[d(αMeP)]N[4Pal][Trp(7-Cl)][αMeS][Phe(4-COOH)]Y[Sar][Trp(βS-Me,7-OMe)]C-NH2
# modifications: thioether N-14 (inferred); reading uncertain; also: printed as cyclo(ClAc-Nle-4Pal-Pip2c-W-daMeP-N-4Pal-Trp7Cl-aMeS-Phe4COOH-Y-Sar-SbMeW7OMe-C)-NH2
# B8: SEQ ID NO. 75 (peptide)
# peptide: {CH2CO}-[Nle][4Pal][Pip2c]W[NMeE][Qdm][4Pal][Trp(7-Cl)][αMeS][Phe(4-COOH)]Y[Sar][Trp(βS-Me,7-OMe)]C-NH2
# modifications: thioether N-14 (inferred); reading uncertain; also: printed as cyclo(ClAc-Nle-4Pal-Pip2c-W-NMeE-Qdm-4Pal-Trp7Cl-aMeS-Phe4COOH-Y-Sar-SbMeW7OMe-C)-NH2
# B9: SEQ ID NO. 71 (peptide)
# peptide: {CH2CO}-[Nle][4Pal][Pipc4OH]W[NMeE]N[4Pal][Trp(7-Cl)][αMeS][Phe(4-COOH)]Y[Sar][Trp(βS-Me,7-OMe)]C-NH2
# modifications: thioether N-14 (inferred)
# B10: SEQ ID NO. 88 (peptide)
# peptide: cyclo([bhcLeu][Nle][4Pal][Pipt5OH]W[dHyp]N[AlaPyrim4COOH][Trp(7-Cl)][αMeS][Phe(4-CONH2)][Phe(4-COOH)][Sar][Trp(βS-Me,7-OMe)])
# modifications: reading uncertain; also: printed as cyclo(bhcLeu-Nle-4Pal-Pipt5OH-W-dProt4OH-N-AlaPyrim4COOH-Trp7Cl-aMeS-Phe4CONH2-Phe4COOH-Sar-SbMeW7OMe)
# B11: SEQ ID NO. 64 (peptide)
# peptide: cyclo([bhcLeu][Nle][4Pal][Pip2c]W[NMeE][MO2][4Pal][Trp(7-Cl)][αMeS][Phe(4-COOH)]Y[Sar][Trp(βS-Me,7-OMe)])
# modifications: reading uncertain; also: printed as cyclo(bhcLeu-Nle-4Pal-Pip2c-W-NMeE-MO2-4Pal-Trp7Cl-aMeS-Phe4COOH-Y-Sar-SbMeW7OMe)
# B12: SEQ ID NO. 287 (Example No. 287) macrocyclic peptide (peptide)
# peptide: cyclo([bhcLeu][Nle][4Pal][Pip(4-aza)][Trp(7-aza)][dPro(trans-4-NMe2)]N[Phe(4-COOH)][Trp(7-CN)][αMeS][Phe(4-COOH)][RbOHPhe4CONH2][Sar][Trp(βS-Me,7-OMe)])
# SMILES: CCCC[C@@H]1NC(=O)[C@@H]2CC[C@@H](C2)NC(=O)[C@H]([C@@H](C)c2c[nH]c3c(OC)cccc23)NC(=O)CN(C)C(=O)[C@H]([C@H](O)c2ccc(C(N)=O)cc2)NC(=O)[C@H](Cc2ccc(C(=O)O)cc2)NC(=O)[C@](C)(CO)NC(=O)[C@H](Cc2c[nH]c3c(C#N)cccc23)NC(=O)[C@H](Cc2ccc(C(=O)O)cc2)NC(=O)[C@H](CC(N)=O)NC(=O)[C@H]2C[C@H](N(C)C)CN2C(=O)[C@H](Cc2c[nH]c3ncccc23)NC(=O)[C@@H]2CNCCN2C(=O)[C@H](Cc2ccncc2)NC1=O
# B13: biotinylated peptide SEQ ID NO. 1 (TR-FRET probe): cyclo(ClAc-F-Y-S-W-Sar-N-Y-W-S-Y-Y-Sar-W-C)-G-Aea-K(N-Biotin)-NH2 (peptide)
# peptide: {CH2CO}-FYSW[Sar]NYWSYY[Sar]WCG[AEA]K(Biotin)-NH2
# modifications: thioether N-14
# SMILES: CN1CC(=O)N[C@@H](CC(N)=O)C(=O)N[C@@H](Cc2ccc(O)cc2)C(=O)N[C@@H](Cc2c[nH]c3ccccc23)C(=O)N[C@@H](CO)C(=O)N[C@@H](Cc2ccc(O)cc2)C(=O)N[C@@H](Cc2ccc(O)cc2)C(=O)N(C)CC(=O)N[C@@H](Cc2c[nH]c3ccccc23)C(=O)N[C@H](C(=O)NCC(=O)NCCOCC(=O)N[C@@H](CCCCNC(=O)CCCC[C@@H]2SC[C@@H]3NC(=O)N[C@@H]32)C(N)=O)CSCC(=O)N[C@@H](Cc2ccccc2)C(=O)N[C@@H](Cc2ccc(O)cc2)C(=O)N[C@@H](CO)C(=O)N[C@@H](Cc2c[nH]c3ccccc23)C1=O
# notes: Synthetic thioether macrocycle made by Procedure A, with a Gly-Aea spacer and Lys(biotin) on the carboxy group of the C-terminal cysteine; also called biotin-tagged B0372 peptide
# Target: T1, TNFR1 on THP-1 Lucia NF-kB reporter …
# Assay: cell-based or functional assay
row,THP-1 IC50 [nM],Binder
1,1.6,B1
2,4,B2
3,0.7,B3
4,1.5,B4
5,1.6,B5
6,1.3,B6
7,4.7,B7
8,6.1,B8
9,2.8,B9
10,1.9,B10
11,1.1,B11

# Target: T2, TNFR1 on THP-1 Lucia NF-κB reporter …
# Assay: cell-based or functional assay
row,THP-1 IC50 [nM],Binder
1,1.7,B12

# Target: T3, C-terminally 6His-tagged human soluble …
# Assay: TR-FRET binding assay, probe peptide with sTNFR1-6His (0.25 nM)
row,Kd [nM],Binder
1,~100,B13

# — US20240287138A1 (Merck Sharp & Dohme, published 2024)
